Reference: patent publication US20250276070A1

Molecular target: hFcRn/β2-microglobulin complex (human) (UniProt P55899)
Experiment: BLI, His-tagged hFcRn/b2m on Ni-NTA, pH 5.6

hFcRn/β2-microglobulin complex (human), sequence (P55899 24-297 limits assumed, chain 1 of 2): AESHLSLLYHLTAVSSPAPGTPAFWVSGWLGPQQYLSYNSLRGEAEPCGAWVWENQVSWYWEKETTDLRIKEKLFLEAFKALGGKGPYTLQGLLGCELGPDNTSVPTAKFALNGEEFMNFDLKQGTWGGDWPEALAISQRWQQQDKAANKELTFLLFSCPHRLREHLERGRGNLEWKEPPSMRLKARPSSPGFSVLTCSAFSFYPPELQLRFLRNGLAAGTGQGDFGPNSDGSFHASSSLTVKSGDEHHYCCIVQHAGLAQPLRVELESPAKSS
hFcRn/β2-microglobulin complex (human), sequence (P61769 21-119 limits assumed, chain 2 of 2, further chain): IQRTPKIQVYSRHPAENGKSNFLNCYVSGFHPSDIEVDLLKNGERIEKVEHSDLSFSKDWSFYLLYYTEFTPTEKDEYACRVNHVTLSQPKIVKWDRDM

Substance: T-01 MB IgG1 I253V
- fold higher affinity than the IgG1 control: > 1000 fold
